Residue numbers refer to the chain shown, from its start. In names and notes the source's numbering stands. Each block holds one binder with its values, some of them ahead of it.
Key:
[1] = molecular target: T1, human FcγRIIb extracellular domain, His-tagged (human, UniProt P31994 43-217); assay: SPR Biacore T200, 25C, pH 7.4; FcγRIIb at 1000 nM, corrected by captured antibody
T1 construct: extracellular domain; also called hFcγR IIb
T1 sequence (looked up): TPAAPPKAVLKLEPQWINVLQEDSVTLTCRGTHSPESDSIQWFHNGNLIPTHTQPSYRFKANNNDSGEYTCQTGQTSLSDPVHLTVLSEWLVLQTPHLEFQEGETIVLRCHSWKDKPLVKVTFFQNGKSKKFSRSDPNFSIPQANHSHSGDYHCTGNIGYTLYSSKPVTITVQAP
Method: (§1) The interaction between the generated antibodies and human FcγRs was analyzed by the following method using Biacore T200. 50 mM Na-Phosphate, 150 mM NaCl, 0.05% Tween20 (pH 7.4) was used as the running buffer, and the assay was performed at 25° C. For the sensor chips, Series S SA (GE Healthcare) chips onto which CaptureSelect Human Fab-lambda Kinetics Biotin Conjugate (Thermo Fisher Scientific) was immobilized were used. The antibodies of interest were captured onto these chips and each FcγR diluted in the running buffer was allowed to interact with them. Chips were regenerated with 10 mM Glycine-HCl (pH 1.5) and 25 mM NaOH, and assay was performed by repeatedly capturing antibodies. The dissociation constants KD (mol/L) for FcγRs of each antibody were calculated using Biacore T200 Evaluation Software 2.0, using the 1:1 Langmuir binding model for FcγRIa and FcγRIIIa and the steady state affinity model for FcγRIIa. For FcγRIIb, the binding amount of FcγRIIb per unit amount of antibody was calculated by correcting the binding amount of FcγRIIb obtained from the sensorgram obtained by the measurement with the amount of antibody captured onto the chip surface.

human FcRn = molecular target: T2, human FcRn (human, UniProt P55899 24-290; P61769 21-119); assay: KD of 04H1637-G1m/04L1610-lam1 divided by KD of this antibody; SPR pH 6.0
T2 construct: Prepared by the method of WO 2010/107110; also called hFcRn
Method: The interaction between the generated antibodies and human FcRn was analyzed by the following method using Biacore T200. 50 mM Na-Phosphate, 150 mM NaCl, 0.05% Tween20 (pH 6.0) was used as the running buffer, and the assay was performed at 25° C. For the sensor chip, Series S SA (GE Healthcare) chips onto which CaptureSelect Human Fab-lambda Kinetics Biotin Conjugate (Thermo Fisher Scientific) was immobilized were used. The antibodies of interest were captured onto these chips and FcRn diluted in the running buffer was allowed to interact with them. Chips were regenerated with 10 mM Glycine-HCl (pH 1.5) and 25 mM NaOH, and assay was performed by repeatedly capturing antibodies. The dissociation constant for FcRn of each antibody was calculated using the steady state model, using Biacore T200 Evaluation Software 2.0.
“Relative value to KD between G1m and hFcRn” and “Relative value to KD between G1m and hFcγRs” are values obtained by dividing the KD value of 04H1637-G1m/04L1610-lam1 for hFcRn and for each FcγR by the KD value of each variant, respectively. “Relative binding amount” indicates the value obtained by dividing the binding amount of each variant to FcγRIIb by the binding amount of 04H1637-G1m/04L1610-lam1. […] It was shown that all of the generated heterodimerized antibodies had enhanced binding to FcγRIIa and FcγRIIIa as compared with 04H1637-G1m/04L1610-lam1 which has the constant region of native human IgG1. Furthermore, 04H1637-Kn462/04L1610-lam1//04H1637-H1441/04L1610-lam1, 04H1637-Kn462/04L1610-lam1//04H1637-H1445/04L1610-lam1, and 04H1637-Kn461/04L1610-lam1//04H1637-H1443/04L1610-lam1 were all shown to have enhanced binding to FcγRIIa compared to 04H1637-Kn125/04L1610-lam1//04H1637-H1076/04L1610-lam 1 which has the Fc region variant reported in WO 2013/002362.

[2] = molecular target: T3, human FcγRIIIa, allotype F158, extracellular domain, His-tagged (human, UniProt P08637 17-208); assay: KD of 04H1637-G1m/04L1610-lam1 divided by KD of this antibody; SPR pH 7.4
T3 construct: extracellular domain; also called hFcγR IIIa F
T3 sequence (P08637 17-208): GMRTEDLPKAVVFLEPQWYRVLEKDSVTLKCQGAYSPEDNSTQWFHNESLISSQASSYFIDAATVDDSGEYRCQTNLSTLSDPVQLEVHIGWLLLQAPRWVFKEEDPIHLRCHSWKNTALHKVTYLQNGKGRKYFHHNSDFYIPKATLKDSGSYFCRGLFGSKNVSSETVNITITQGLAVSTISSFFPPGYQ
Method: as §1
(§2) “Relative value to KD between G1m and hFcRn” and “Relative value to KD between G1m and hFcγRs” are values obtained by dividing the KD value of 04H1637-G1m/04L1610-lam1 for hFcRn and for each FcγR by the KD value of each variant, respectively. “Relative binding amount” indicates the value obtained by dividing the binding amount of each variant to FcγRIIb by the binding amount of 04H1637-G1m/04L1610-lam1. […] It was shown that all of the generated heterodimerized antibodies had enhanced binding to FcγRIIa and FcγRIIIa as compared with 04H1637-G1m/04L1610-lam1 which has the constant region of native human IgG1.

[3] = molecular target: T4, human FcγRIIIa, allotype V158, extracellular domain, His-tagged (human, UniProt P08637 17-208); assay: as above
T4 construct: extracellular domain; also called hFcγR IIIa V
T4 sequence (P08637 17-208 F176V): as the sequence (P08637 17-208) above, with F160V counted along it
Method: as §1, §2

[4] = molecular target: T5, human FcγRIa extracellular domain, His-tagged (human, UniProt P12314 16-292); assay: as above
T5 construct: also called hFcγR Ia
T5 sequence (P12314 16-292): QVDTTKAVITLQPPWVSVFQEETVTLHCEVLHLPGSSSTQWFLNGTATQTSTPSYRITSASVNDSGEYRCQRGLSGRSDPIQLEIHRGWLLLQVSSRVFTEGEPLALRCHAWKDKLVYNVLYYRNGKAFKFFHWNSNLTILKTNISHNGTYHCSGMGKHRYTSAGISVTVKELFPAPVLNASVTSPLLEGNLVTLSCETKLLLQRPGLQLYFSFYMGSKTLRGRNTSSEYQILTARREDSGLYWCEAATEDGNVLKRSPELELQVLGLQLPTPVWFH
Method: as §1, §2

[5] = molecular target: T6, human FcγRIIa, type R, extracellular domain, His-tagged (human, UniProt P12318 34-217); assay: as above
T6 construct: extracellular domain; also called hFcγR IIa R
T6 sequence (looked up): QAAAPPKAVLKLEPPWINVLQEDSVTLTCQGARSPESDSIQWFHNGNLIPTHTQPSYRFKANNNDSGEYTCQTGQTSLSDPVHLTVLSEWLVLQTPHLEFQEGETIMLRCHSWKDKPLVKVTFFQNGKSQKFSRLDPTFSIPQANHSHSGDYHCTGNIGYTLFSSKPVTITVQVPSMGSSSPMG
Method: as §1, §2

[6] = molecular target: T7, human FcγRIIa, type H, extracellular domain, His-tagged (human, UniProt P12318 34-217); assay: as above
T7 construct: extracellular domain; also called hFcγR IIa H
T7 sequence (looked up): T6 sequence (looked up) with R134H
Method: as §1, §2

[7] = molecular target: T1, human FcγRIIb extracellular domain, …; assay: binding amount of this antibody divided by that of 04H1637-G1m/04L1610-lam1; SPR pH 7.4
Method: as §1, §2

- Binding amount [1]: 0.022 RU per RU of captured antibody
- Relative value to KD between G1m and hFcRn (human FcRn): 2.3 ratio
- Relative value to KD between G1m and hFcγRs [2]: 495 ratio
- Relative value to KD between G1m and hFcγRs [3]: 152 ratio
- Relative value to KD between G1m and hFcγRs [4]: 1.5 ratio
- Relative value to KD between G1m and hFcγRs [5]: 7.7 ratio
- Relative value to KD between G1m and hFcγRs [6]: 6.5 ratio
- Relative binding amount [7]: 2.7 ratio
B1: 04H1654-KT481/04L1610-lam1//04H1656-HT498/04L1610-lam1 (antibody, IgG1)
heavy 1: QVQLVESGGGVVQPGGSLRLSCAASGFTFSSKTMNWVRQAPGKGLEWVSSISTQSHYIYYARSVRGRFTISRDNAKNSLYLQMNSLRAEDTAVYYCARYGKREDMLWVFDYWGQGTLVTVSSASTKGPSVFPLAPSSKSTSGGTAALGCLVKDYFPEPVTVSWNSGALTSGVHTFPAVLQSSGLYSLSSVVTVPSSSLGTQTYICNVNHKPSNTKVDKRVEPKSCDKTHTCPPCPAPEFQWGPMVFLFPPKPKDVLMISRTPEVTCVVVDVSDEEPEVKFNWYVDGVEVHNAKTKPREEQYNATYRVVSVLPVLHQDWLNGKEYKCKVSNDALPAPEEKTISKAKGQPREPQVYTLPPSRKEMTKNQVSLTCLVKGFYPSDIAVEWESNGQPENNYKTTPPVLDSDGSFFLYSKLTVDKSRWQQGNVFSCSVMHEALHAHTTRKELSLSP
heavy 2: B1 heavy 1 with R62E, K101A, F239L, Q240L, W241A, M244S, D273H, K339E, K361E, K444E
light: QSALTQPPSASGSPGQSVTISCEGPSTGVGDYNWVHWYQQHPGKAPKLMIYFTSKKPSGVPDRFSGSKSGNTASLTVSGLQAEDEADYYCQTYAAPLGPMFGGGTKLTVLGQPKAAPSVTLFPPSSEELQANKATLVCLISDFYPGAVTVAWKADSSPVKAGVETTTPSKQSNNKYAASSYLSLTPEQWKSHRSYSCQVTHEGSTVEKTVAPTECS
notes: Heterodimerized IgG1 Fc variant with N434A/Y436T/Q438R/S440E

- Binding amount [1]: 0.022 RU per RU of captured antibody
- Relative value to KD between G1m and hFcRn (human FcRn): 2.2 ratio
- Relative value to KD between G1m and hFcγRs [2]: 479 ratio
- Relative value to KD between G1m and hFcγRs [3]: 145 ratio
- Relative value to KD between G1m and hFcγRs [4]: 1.1 ratio
- Relative value to KD between G1m and hFcγRs [5]: 7.6 ratio
- Relative value to KD between G1m and hFcγRs [6]: 6.4 ratio
- Relative binding amount [7]: 2.8 ratio
B2: 04H1654-KT481/04L1612-lam1//04H1656-HT498/04L1612-lam1 (antibody, IgG1)
heavy 1: B1 heavy 1
heavy 2: B1 heavy 1 with R62E, K101A, F239L, Q240L, W241A, M244S, D273H, K339E, K361E, K444E
light: B1 light with N33T, W34Y
notes: as for B1

Source: patent US20260092115A1 (Chugai, published 2026)
